Earlier results in patent US20230023414A1, “METHODS AND DEVICES FOR TREATING A DISEASE WITH BIOTHERAPEUTICS” (PROGENITY, INC., priority 2018, published 2023).

B1: emicizumab (antibody, chains of the INN, looked up, V domains shown)
VH: QVQLVQSGSELKKPGASVKVSCKASGYTFTDNNMDWVRQAPGQGLEWMGDINTRSGGSIYNEEFQDRVIMTVDKSTDTAYMELSSLRSEDTATYHCARRKSYGYYLDEWGEGTLVTVSS
VL: DIQMTQSPSSLSASVGDRVTITCKASRNIERQLAWYQQKPGQAPELLIYQASRKESGVPDRFSGSRYGTDFTLTISSLQPEDIATYYCQQYSDPPLTFGGGTKVEIK
VH2: QVQLVESGGGLVQPGGSLRLSCAASGFTFSYYDIQWVRQAPGKGLEWVSSISPSGQSTYYRREVKGRFTISRDNSKNTLYLQMNSLRAEDTAVYYCARRTGREYGGGWYFDYWGQGTLVTVSS
VL2: B1 VL
B2: pegfilgrastim (protein, UniProt P09919 31-207, looked up)
Granulocyte …: TPLGPASSLPQSFLLKCLEQVRKIQGDGAALQEKLVSECATYKLCHPEELVLLGHSLGIPWAPLSSCPSQALQLAGCLSQLHSGLFLYQGLLQALEGISPELGPTLDTLQLDVADFATTIWQQMEELGMAPALQPTQGAMPAFASAFQRRAGGVLVASHLQSFLEVSYRVLRHLAQP
modifications: N-terminal Met, 20 kDa PEG
B3: concizumab (antibody, chains of the INN, looked up, V domains shown)
VH: EVQLVESGGGLVKPGGSLRLSCAASGFTFSNYAMSWVRQTPEKRLEWVATISRSGSYSYFPDSVQGRFTISRDNAKNSLYLQMNSLRAEDTAVYYCARLGGYDEGDAMDSWGQGTTVTVSS
VL: DIVMTQTPLSLSVTPGQPASISCKSSQSLLESDGKTYLNWYLQKPGQSPQLLIYLVSILDSGVPDRFSGSGSGTDFTLKISRVEAEDVGVYYCLQATHFPQTFGGGTKVEIK
B4: evolocumab (antibody, chains of the INN, looked up, V domains shown)
VH: EVQLVQSGAEVKKPGASVKVSCKASGYTLTSYGISWVRQAPGQGLEWMGWVSFYNGNTNYAQKLQGRGTMTTDPSTSTAYMELRSLRSDDTAVYYCARGYGMDVWGQGTTVTVSS
VL: ESALTQPASVSGSPGQSITISCTGTSSDVGGYNSVSWYQQHPGKAPKLMIYEVSNRPSGVSNRFSGSKSGNTASLTISGLQAEDEADYYCNSYTSTSMVFGGGTKLTVL

Settings: SC administration

Molecule	Approved Dosing Info: Bio Avail [%]	Baseline dose: Bioavail. (dose info for non-approved agents from clinical trial information) [%]
B1	85	
B2	70	
B3		93.0
B4	82	
